Laboratory results as given in US8624002B2, “Prostaglandin E2 binding proteins and uses thereof” (AbbVie, Inc., priority 2008, dated 2014).

Key:
^3H-PGE2 ELISA (binding) = experiment: ^3H-PGE2 ELISA (binding)
Procedure: Alternatively, prostaglandin binding was determined using a ^3H-PGE2 ELISA. Plates were coated at 50 μL/well with 5 μg/ml of goat anti-human IgG (Fc) (Thermo Scientific # 31170, Hudson, N.H.) or goat anti-mouse IgG (Fc) (Thermo Scientific # 31125, Hudson, N.H.) in PBS and incubated overnight at 4° C. The following day, plates were flicked and blotted dry. Plates were blocked with 200 μL/well of Superblock (Thermo Scientific # 37515, Hudson, N.H.) for 1 hour at room temperature. Plates were flicked and blotted dry. Monoclonal antibodies were diluted to 0.04 μg/ml in phosphate buffer solution with Tween 20 (PBST) (Abbott Bioresearch Center, Worcester, Mass.) and 10% Superblock and 50 μL of each antibody was added to each well of the pre-blocked ELISA plate at 2 ng/well and incubated for 1 hour at room temperature. Wells were washed 3 times with PBS+0.1% Tween-20. A serial 3-fold titration of ^3H-PGE2 (Perkin Elmer # NET-428, Waltham, Mass.) was prepared in PBST/10% Superblock. Fifty microliters of the ^3H-PGE2 solution was added to each well of the plate and incubated for 1 hour at room temperature. […] Plates were read using a TopCount reader (Perkin Elmer, Waltham, Mass.) with a 5 minute count delay. An EC50 number was determined using GraphPad Prism 5 (GraphPad Software, La Jolla, Calif.).

[1] = test system: PGE2 induced Ca++ influx in HEK293 Gα16 cells stably transfected with human EP4 receptor; experiment: EP4 bioassay: PGE2 induced Ca++ flux (FLIPR); type: cell-based; conditions: PGE2 25 pm; read-out: IC50 (pM) @ PGE2 25 pm Cellular Potency in EP4 assay
Procedure: The ability of anti-PGE2 antibody to inhibit cellular response of PGE2 in vitro was determined in a Ca^++ flux assay in HEK293 Gα16 cells (Abbott Bioresearch Center, Worcester, Mass.) stably transfected with human EP4 receptor. In brief, an expression plasmid encoding one of the four human PGE2 receptors, EP4, and an expression plasmid encoding Gα16, were co-transfected into human embryonic kidney cell line 293 cells (ATCC# CRL1573, Manassas, Va.). The stable clones co-expressing both human EP4 and Gα16 protein were selected using standard methods (Joseph Sambrook and David W. Russell. Molecular Cloning: A Laboratory Manual Publisher. Published by Cold Spring Harbor Laboratory Press, 2001) and used for the EP4 bioassay. The HEK293 Gα16 cells were plated in black/clear poly-D-lysine plates (Corning #3667, Corning, N.Y.) and incubated with a Ca^++-sensitive dye (Molecular Devices, Sunnyvale, Calif.) for 90 minutes. Stock PGE2 (in 200 proof ethanol) was diluted with FLIPR buffer [containing 1×HBSS (Invitrogen Carlsbad, Calif.), 20 mM HEPES (Invitrogen Carlsbad, Calif.), 0.1% BSA (Sigma, St. Louis, Mo.) and 2.5 mM Probenecid (Sigma, St. Louis, Mo.)]. Anti-PGE2 antibodies or isotype matched control antibodies were also pre-diluted in FLIPR buffer. 25 μl of PGE2 or pre-incubated PGE2/antibody mixture was added to the wells pre-plated with cells. The dose response of PGE2 was determined on a serial titration of PGE2 and using FLIPR1 or Tetra (Molecular Devices, Sunnyvale, Calif.) and EC50 was determined using GraphPad Prism 5 (GraphPad Software, La Jolla, Calif.). […] Ca^++ flux was monitored using FLIPR1 and data was analyzed using GraphPad Prism 5 (GraphPad Software, La Jolla, Calif.).

[2] = Accelerated stability screening monitored by SEC; type: physicochemical; conditions: for Aggregate (%) / Fragment (%) / Monomer (%): SEC
Procedure: Size exclusion chromatography was used to separate proteins based on size. Proteins are carried in an aqueous mobile phase and through a porous stationary phase resin packed in a column. The retention time in the column is a function of the hydrodynamic size of the protein and the size of the pores in the packed resin bed. Smaller molecules can penetrate into smaller pores in the resin and are retained longer than larger molecules. Upon elution from the column the proteins are detected by UV absorbance. The SEC method used a TSK gel guard (TOSOH Biosciences, Montgomeryville, Pa., cat. no. 08543) and a TSK gel G3000SWxL (TOSOH Biosciences, Montgomeryville, Pa., cat. no. 08541). The mobile phase was 100 mM Na2HPO4, 200 mM Na2SO4, pH 7.0. The flow rate was 0.3 mL/minute. Injection volume was 20 μL of 1 mg/mL sample. The column temperature was room temperature. The autosampler temperature was 2-8° C. The total run time was 50 minutes. The detection was based on UV absorbance at 214 nm wavelength, with band width set at 8 nm, using reference wavelength at 360 nm with band width 100 nm.
(§1) The stability of a series of clones (i.e., anti-PGE2 antibodies) of the parent anti-PGE2 antibody was assessed by using intrinsic thermodynamic clone stability determination using DSC (0.79 mg/mL clone concentration, formulated at pH 6 in a 10 mM citrate, 10 mM phosphate buffer) and by accelerated stability screening (0.79 mg/mL clone concentration, formulated at pH 6 in a 10 mM citrate, 10 mM phosphate buffer, for 7 days at 50° C.) where clone stability was monitored with SEC (Table 15).

[3] = Intrinsic thermodynamic stability by DSC; type: physicochemical
Procedure: The thermal stability of the anti-PGE2 antibodies was assessed using a DSC instrument. The DSC instrument used was an automated VP-DSC equipment with Capillary Cell (Microcal, GE Healthcare Ltd./Microcal, Buckinghamshire, UK). Unfolding of molecules was studied applying a 1° C./minute scan rate over a 25° C.-95° C. temperature range for samples at 1 mg/mL. Additional measurement parameters applied were a fitting period of 16 seconds, a pre-scan wait time of 10 minutes, and measurements were performed in none-feedback mode. Per individual measurement, 420 μL of sample/blank were filled into the DSC measurement sample holder, with a plate fill scheme as provided below. The thermograms obtained were fitted to a non two state model to obtain the midpoint temperatures and enthalpies of the different transitions.
as §1

[4] = Capillary zone electrophoresis; type: physicochemical; conditions: running buffer pH 5.5; compared with Hu2B5.2, Hu2B5.4, Hu2B5.6, Hu2B5.8
From the text: Capillary zone electrophoresis is a capillary electrophoresis method in which the capillary is filled with buffer and the separation mechanism is based on differences in electrophoretic mobility of the analyte through the buffer. The electrophoretic mobility of a molecule is related to the charge-to-size ratio. A Beckman-Coulter ProteomeLab PA 800 (Beckman Coulter, Fullerton, Calif.) was used for the CZE analysis. A neutral capillary (eCAP neutral, 56 cm total length, 50 μm I. D. Beckman-Coulter, P/N 477441, Fullerton, Calif.) was used. The method used a 30.2 cm capillary with a detection window 20.2 cm from the sample introduction inlet. The running buffer was 100 mM EACA (6-Aminocaproic acid, Sigma A7824-100 G, St. Louis, Mo.) with 0.1% MC (from 1% Methylcellulose solution, Convergent Bioscience, cat# 101876, Toronto, ON, Canada), pH 5.5.

B1: Hu2B5.9: humanized 2B5-8.0; VH SEQ ID NO 76, VL SEQ ID NO 77 (antibody, V domains shown)
VH: EVQLVQSGAEVKKPGASVKVSCKASGYTFTKYWLGWVRQAPGQGLEWMGDIYPGYDYTHYNEKFKDRVTMTTDTSTSTAYMELRSLRSDDTAVYYCARSDGSSTYWGQGTLVTVSS
VL: DIVMTQTPLSLPVTPGEPASISCTSSQNIVHSNGNTYLEWYLQKPGQSPQLLIYKVSNRFSGVPDRFSGSGSGTDFTLKISRVEAEDVGVYYCFQVSHVPYTFGGGTKVEIKR
- IC50 (^3H-PGE2 ELISA (binding)): 0.704 nM
- IC50 [1]: 125 pM
- monomer levels after 7 days accelerated stability screening ([2]; 7 days at 50° C.): highest monomer levels
- Aggregate (%) ([2]; 7 days storage at 50° C.): 1.9559%
- Fragment (%) ([2]; 7 days storage at 50° C.): 3.4127%
- Monomer (%) ([2]; 7 days storage at 50° C.): 94.6313%
- Fragment (%) ([2]; start of stability study): 2.541%
- Monomer (%) ([2]; start of stability study): 95.6031%
- Aggregate (%) ([2]; start of stability study, 0.79 mg/mL, pH 6): 1.8559%
- Tm1 (° C.) ([3]; 0.79 mg/mL, pH 6, 10 mM citrate, 10 mM phosphate): 73.235 °C
- Tm2 (° C.) ([3]; same buffer): 75.965 °C
- Tm3 (° C.) ([3]; same buffer): 83.04 °C
- migration in capillary zone electrophoresis [4]: migrated more basic
